Source: patent publication US20240358834A1 (University of Pennsylvania, published 2024)
Substitutions are numbered along the chain they refer to. Blank lines part the entries; values can stand above or below the binder they belong to.

Biological target: T1, human CD19 protein with a biotinylated AviTag (Acrobiosystems) (human, UniProt P15391 20-291, biotinylated AviTag)
T1 construct: Captured on streptavidin-coated microplate wells; also called biotinylated-AviTag-CD19; hCD19; not shown: AviTag
T1 sequence (looked up): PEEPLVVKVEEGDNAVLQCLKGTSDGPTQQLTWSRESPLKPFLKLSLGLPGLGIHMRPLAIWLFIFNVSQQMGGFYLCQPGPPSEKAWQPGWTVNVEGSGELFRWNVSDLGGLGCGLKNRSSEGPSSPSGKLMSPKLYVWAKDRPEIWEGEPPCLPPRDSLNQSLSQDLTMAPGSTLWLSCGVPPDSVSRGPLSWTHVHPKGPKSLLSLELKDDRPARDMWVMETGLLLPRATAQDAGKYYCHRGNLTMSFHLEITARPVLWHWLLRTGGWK
Assay: phage ELISA, biotinylated AviTag CD19 on streptavidin wells; signal ratio to FMC63 standard
Text: To identify unique human CD19-binding monoclonal scFv from the panned libraries, individual phage antibody clones were expanded, assessed for binding to CD19 by ELISA, and subjected to nucleotide sequencing to identify those clones that were unique. A total of 84 scFvs were randomly selected from the panned libraries (70 from P3 and 14 from P4).

B2: scFv 31 (scFv)
scFv: QSALTQPSSVSVSLGQTATISCSGESLTKYYVQWFQQKAGQAPVLVIYRDTERPSGIPDRFSGSSSGNTHTLTISGARAEDEADYYCESMDGREAYVFGSGTQLTVLGGGSSRSSSSGGGGSGGGGEVQLVESGGDLVKPGGSLRLSCVASGFTFSSYWMSWVRQAPGKGLQWIADISDSGSSTDYADAVKGRFTISRDNAKNTLYLQMNSLRAEDTAMYYCARGLGMDYWGHGTSLFVSSASTTAPSVTSGQAGQHHHHHHGAYPYDVPDYAS
notes: Canine scFv (VL-linker-VH); also called P4-09
ELISA hCD19 (ratio FMC63): 0.35 ratio to FMC63

B3: scFv 33 (scFv)
scFv: DIVMTQTPLSLSVSPGEPASISCKASQSLLHSDGNTYLHWYLQKPGQSPQLLIYSVSNRFTGVSDRFSGSGSGTDFTLRISRVEADDTGVYYCGQGTHLPFTFGQGTKLEIKGGSSRSSSSGGGGSGGGGEVQLVESGGDLVKPGGSLRLSCAASGFTFSHYDMNWVRQAPGKGLQWVASIAYDGSNTYYTDAVKGRFTISRDNAKNILFLLVNSLRAEDTAIYYCARGLVYWGQGTLVTVSSASTTAPSVTSGQAGQHHHHHHGAYPYDVPDYAS
notes: Canine scFv (VL-linker-VH); also called P3-07
ELISA hCD19 (ratio FMC63): 0.43 ratio to FMC63

B5: scFv 6 (scFv)
scFv: QPVLTQPPSVSGSLGQRVTISCTGTNTNIGSGYSVQWYQQLPGESPKPIIYGSSNRPSGVPARFSGSKSGSTGTLTITGIQAEDEADYHCQSYDDSLDGHAVFGGGTQLTILGGGSSRSSSSGGGGSGGGGEVQLVQSGGDLVKPGGSLRLSCVASGFTFSDNYMSWIRQVPGKGLQWVSRISTDGRGTSYADAVKGRFTISRDNAKNTLYLQMNSLRDEDTAVYYCARRSGIWGFDYWGQGALVTVSSESPSPPNLTSGQAGQHHHHHHGAYPYDVPDYAS
notes: Canine scFv (VL-linker-VH); also called scFv_06; P3-28
ELISA hCD19 (ratio FMC63): 0.47 ratio to FMC63

B6: scFv 34 (scFv)
scFv: B5 scFv with Q1S, P2Y, V3E, G12A, S13A, Q137E, F158L, A243T
notes: Canine scFv (VL-linker-VH); also called P3-44
ELISA hCD19 (ratio FMC63): 0.73 ratio to FMC63

B7: scFv 32 (scFv)
scFv: QSVLTQPASVSVSLGQTATISCSGESLSKYYAQWFQQKAGQAPVLVIYKDTERPSGIPDRFSGSSSGNTHTLTITGIQAADEADYYCQSYDDNLDGYVFGSGTQLTVLGGGSSRSSSSGGGGSGGGGEVQLVESGGDLVKPGGSLRLSCVGSGFTFSSYWMSWVRQAPGKGLQWIADISDSGSSTDYADAVKGRFTISRDNAKNTLYLQMNSLRAEDTAMYYCARGLGMDYWGHGTSLFVSSASTTAPSVTSGQAGQHHHHHHGAYPYDVPDYAS
notes: Canine scFv (VL-linker-VH); also called P4-11
ELISA hCD19 (ratio FMC63): 0.2 ratio to FMC63

B8: scFv 27 (scFv)
scFv: B7 scFv with S2P, A8P, A80E, A83G, Y86H, Q88H, D92E
notes: Canine scFv (VL-linker-VH); also called P3-18
ELISA hCD19 (ratio FMC63): 0.35 ratio to FMC63

B9: scFv 30 (scFv)
scFv: B7 scFv with A32T, T75S, I77A, A80E, L94V
notes: Canine scFv (VL-linker-VH); also called P4-02
ELISA hCD19 (ratio FMC63): 0.22 ratio to FMC63

B11: scFv 3 (scFv)
scFv: QSVLNQPPSVSGALGQTVTISCSGSHTNIGSGFDVQWYQQLPGKSPQTLVYANINRPSGVPARFSGSKSGSTATLTITGVQAEDEADYYCQSYDDNFDGHVFGSGTQLTVLGGGSSRSSSSGGGGSGGGGEVQLVQSGGDLVKPGGSLRLSCVASGFTFSNYTMSWVRQAPGQGLQWVAYINYDGSITYYAEAVKGRFTVSRDNAKNTLYLQMNSLRAEDTAVYFCVKETFMIPTEWGQGTLITVSSASTTAPSVTSGQAGQHHHHHHGAYPYDVPDYAS
notes: Canine scFv (VL-linker-VH); also called scFv_03; P3-05
ELISA hCD19 (ratio FMC63): 0.32 ratio to FMC63

B12: scFv 29 (scFv)
scFv: QSVLNQPPSVSVSLGQTATISCSGESLNKYYTQWFQQKAGQAPVLVIYKDTERPSGIPDRFSGSSSGNTHTLTISGARAEDEADYYCESVDSTDTYVFGSGTQLTILGGGSSRSSSSGGGGSGGGGEVHLVESGGDLVKPGGSLRLSCVGSGFTFSSYWMSWVRQAPGKGLQWIADISDSGSSTDYADAVKGRFTISRDNAKNTLYLQMNSLRAEDTAMYYCARGLGMDYWGHGTSLFVSSASTTAPSVTSGQAGQHHHHHHGAYPYDVPDYAS
notes: Canine scFv (VL-linker-VH); also called P3-51
ELISA hCD19 (ratio FMC63): 0.83 ratio to FMC63

B16: scFv 4 (scFv)
scFv: QSVLNQPPSVSGALGQTVTISCSGSHTNIGSGFDVQWYQQLPGKSPQTIIYANINRPSGVPARFSGSKSGSTATLTITGVQAEDEADYYCQSYDDNFDYVFGSGTQLTVLGGGSSRSSSSGGGGSGGGGEEQLVEFGGDLVKPGGSLRLSCVVSGFDFSRYGMSWVRQSPGKGLQWVADISYRGTTFYADDVKGRFTVSRDSAKNTLYLEMTSLTVEDTAVYYCANSANWYVSPFDHWGQGTLVTVSSASTTAPSVTSGQAGQHHHHHHGAYPYDVPDYAS
notes: Canine scFv (VL-linker-VH); also called scFv_04; P3-06
ELISA hCD19 (ratio FMC63): 0.77 ratio to FMC63

B17: scFv 28 (scFv)
scFv: QSALTQPSSVSVSLGQTATISCSGESLNKYYVQWFQQKAGQVPILVIYRDTERPSGIPDRFSGSSSGNTHTLTITGTRAEDEADYYCESLVNDNTYVFGSGTQLTVLGGGSSRSSSSGGGGSGGGGEVQLVETGGDLVKPGGSLRLSCVGSGFTFSSYWMSWVRQAPGKGLQWIADISDSGSSTDYADAVKGRFTISRDNAKNTLYLQMNSLRAEDTAMYYCARGLGMDYWGHGTSLFVSSASTTAPSVTSGQAGQHHHHHHGAYPYDVPDYAS
notes: Canine scFv (VL-linker-VH); also called P3-30
ELISA hCD19 (ratio FMC63): 0.33 ratio to FMC63

B19: scFv 26 (scFv)
scFv: SSVLTQPPSVSVSLGQTATISCSGESLSKYYTQWFQQKAGQAPILVIYKDTERPSGIPDRFSGSSSGNTHTLTISGARAEDEADYYCESLVDSDAYMFGSGTQLTVLGGGSSRSSSSGGGGSGGGGEVQLVETGGDLVKPGGSLRLSCVGSGFTFSSYWMSWVRQAPGKGLQWIADISDSGSSTDYADAVKGRFTISRDNAKNTLYLQMNSLRAEDTAMYYCARGLGMDYWGHGTSLFVSSASTTAPSVTSGQAGQHHHHHHGAYPYDVPDYAS
notes: Canine scFv (VL-linker-VH); also called P3-03
ELISA hCD19 (ratio FMC63): 0.65 ratio to FMC63

Next, values leading:

ELISA hCD19 (ratio FMC63): 0.47 ratio to FMC63
B1: scFv 41 (scFv)
scFv: QPVLTQPPSVSVSLGQTATISCSGESLSKYYAQWFQQKAGQAPVLVIYKDTERPSGIPDRFSGSSSGNTHTLTISGARAEDEADYYCESAVSTETVVFGGGTHLTVLGGGSSRSSSSGGGGSGGGGEVQLVETGGDLVMPAGSLRLSCVASGFTFSSSVMSWVRQAPGKGLEWVAGINGGGSFAAYGDAVKGRFTISRDNAKNTLYLQMNSLRAEDTAMYYCVGGGYMDFWGPGTSLFVSSESPSPPNLTSGQAGQHHHHHHGAYPYDVPDYAS
notes: Canine scFv (VL-linker-VH); also called P3-08A; P3-08B

ELISA hCD19 (ratio FMC63): 0.14 ratio to FMC63
B4: scFv 40 (scFv)
scFv: QSVLTQPPSVSGSLGQKVTISCTGSSSSVGTHYVGWYQIPPGIGPRTVIYNNDYRPSGVPDRFSGSKSGNSATLTISGLQAEDEADYYCSSWDDSLGAYVLGSGTQLTILGGGSSRSSSSGGGGSGGGGELTLQESGPGLVKPSQTLSLTCAVSGGSVIRGYYWTWIRQRPGRGLEWMGYWAGSTDYNPAFQGRIFITAGTAKNQFSLEMTSMTTDDTAIYYCVGSLRGGWLFDNWGQGTLVTVSSASTTAPSVTSGQAGQHHHHHHGAYPYDVPDYAS
notes: Canine scFv (VL-linker-VH); also called P3-59B

ELISA hCD19 (ratio FMC63): 0.6 ratio to FMC63
B10: scFv 36 (scFv)
scFv: QSVLTQPTSVSGSLGQRVTISCSGSTNNIGIVGASWYQQLPGKAPKLLVYSDGDRPSGVPDRFSGSNSGNSDTLTITGLQAEDEADYYCQSFDTTLDAYVFGSGTQLTVLGGGSSRSSSSGGGGSGGGGEEQLVEFGGGLVRPGGSLRLSCVASGFTFSSYGMTWVRQSPGKGLQWVATISDTGSTYYADTVKGRFSISRDNAKNTLYLQMNSLRADDTALYYCTKDLGVWGMDNWGPGTSLFVSSASTTAPSVTSGQAGQHHHHHHGAYPYDVPDYAS
notes: Canine scFv (VL-linker-VH); also called P3-25

ELISA hCD19 (ratio FMC63): 0.23 ratio to FMC63
B13: scFv 35 (scFv)
scFv: SSVLTQPPSVSVSLGQTATISCSGESLSEYYAQWFQQKAGQAPVLVIYKDTERASGIPDRFSGSSSGNTHTLTISGARAEDEADYYCESAVNSDGIVFGGGTHLTVLGGGSSRSSSSGGGGSGGGGEVQLVESGGDLVKPAGSLRLSCVTSGFTFSSYAMSWVRQAPGKGLQWVGSINSGGSTTSYADAVKGRFTISRDNAKNTVYLQMNSLRAEDTAVYYCARWWDFEYWGQGTLVTVSSESPSPPNLTSGQAGQHHHHHHGAYPYDVPDYAS
notes: Canine scFv (VL-linker-VH); also called P4-08

ELISA hCD19 (ratio FMC63): 0.1 ratio to FMC63
B14: scFv 37 (scFv)
scFv: SSVLTQPPSVSVSLGQTATISCSGESLNDYYAQWFQQKAGQVPVLVIYRDTERPSGIPDRFSGSSSGNTHTLTISGARAEDEADYYCESEVSAGGAVFGEGTHLTVLGGGSSRSSSSGGGGSGGGGEVQLVETGGDLVKPGGSLRLSCVASGFTLRDYSMTWVRQTPEKGLQLVAGISTGGSTTYYIDAVKGRFTISRDNAKNTVYLQMNSLRAEDTAMYHCTTTALGYWGQGTLVTVSSASTTTPSVTSGQAGQHHHHHHGAYPYDVPDYAS
notes: Canine scFv (VL-linker-VH); also called P3-27

ELISA hCD19 (ratio FMC63): 0.64 ratio to FMC63
B15: scFv 38 (scFv)
scFv: SSVLTQPPSVSVSLGQTATISCSGESLSEYYAQWFQQKAGQAPVLVIYKDTERPSGIPDRFSGSSSGNTHTLTISGARAEDEADYYCASADSSAIPVFGGGTHLTVLGGGSSRSSSSGGGGSGGGGEVQLVESGGDLVKPGGSLRLSCVASGFNFGNYAVSWVRQAPGKGLQWVAGISNDGTITGYTDVVEGRFIISRDNAKNTLYLQMNSLRAEDMAIYYCVAGGFLDYWGQGTLVTVSSASTTAPSVTSGQAGQHHHHHHGAYPYDVPDYAS
notes: Canine scFv (VL-linker-VH); also called P3-17

ELISA hCD19 (ratio FMC63): 0.19 ratio to FMC63
B18: scFv 39 (scFv)
scFv: QSVLTQPPSVSGSPGQRVTISCSGTTKNIGIVGASWYQQLPGKAPKLLVHSDGFRPSGVPDRFSASNSGDSDILTITGLQAEDEADYYCQSFDTTLDAHVFGSGTQLTVLGGGSSRSSSSGGGGSGGGGEVPLVESGGDLVKPGGSLRLSCVASGFTFSSYGMSWVRQSPGKGLQWVAGITYDGSNTYYTDTVRGRFTISRDNARNTVYLQMNSLRAEDTAVYYCVASPLYGTYGFDYWGHGTSVFVSSASTTAPSVTSGQAGQHHHHHHGAYPYDVPDYAS
notes: Canine scFv (VL-linker-VH); also called P3-29
